Data reported in patent publication US20090269356, “Complement Binding Aptamers and Anti-C5 Agents Useful in the Treatment of Ocular Disorders” (published 2009).

Columns and labels:
[1] = biological target: complement C5 (full length) (Homo sapiens, UniProt P01031); experiment: filter; dot blot; 20% plateau; conditions: tags: Quidel / Complement Technologies A120.14 / Advanced Research Technologies
Experimental: The selection progress was monitored using a sandwich filter binding (dot blot) assay. The 5′-³²P-labeled pool RNA (trace concentration) was incubated with C5, 1×DPBS plus 0.1 mg/mL tRNA and 0.1 mg/mL salmon sperm DNA, for 30 minutes at room temperature, and then applied to a nitrocellulose and nylon filter sandwich in a dot blot apparatus (Schleicher and Schuell). The percentage of pool RNA bound to the nitrocellulose was calculated and monitored approximately every 3 rounds with a single point screen (+/−300 nM C5). Pool Kd measurements were measured using a titration of protein and the dot blot apparatus as described above.
Sequence Information: 45 clones from each pool were sequenced. R10 full length pool was dominated by one single clone ARC913 (SEQ ID NO: 75) which made up 24% of the pool, 2 sets of duplicates and single sequences made up the remainder. The R10 trypsinized pool contained 8 copies of the same sequence ARC913 (SEQ ID NO: 75), but the pool was dominated by another sequence (AMX221.A7; 46%).

[2] = biological target: complement C5 in human serum/blood (Homo sapiens, UniProt P01031); experiment: inhibition; hemolysis, 0.2% human serum, 25 C; conditions: protein: extract
Experimental: Hemolysis Assay: The effect of ARC913 (SEQ ID NO: 75) on the classical pathway of the complement system was analyzed using a hemolysis assay previously described, compared to both ARC186 (SEQ ID NO: 4) (Anti-C5 aptamer, positive control) and unselected dRmY pool (negative control). In the assay of hemolytic inhibition, a solution of 0.2% whole human serum was mixed with antibody-coated sheep erythrocytes (Diamedix EZ Complement CH50 Test, Diamedix Corporation, Miami, Fla.) in the presence of titrated ARC913 (SEQ ID NO: 75). The assay was run in veronal-buffered saline containing calcium, magnesium and 1% gelatin (GVB⁺⁺ complement buffer) and incubated for 1 hr at 25° C. After incubation the samples were centrifuged. The optical density at 415 nm (OD₄₁₅) of the supernatant was read. The inhibition of hemolysis activity is expressed as % hemolysis activity compared to control. The IC₅₀ of the aptamer was calculated to be about 30 nM.

Sequence of complement C5 (full length) (P01031 whole entry): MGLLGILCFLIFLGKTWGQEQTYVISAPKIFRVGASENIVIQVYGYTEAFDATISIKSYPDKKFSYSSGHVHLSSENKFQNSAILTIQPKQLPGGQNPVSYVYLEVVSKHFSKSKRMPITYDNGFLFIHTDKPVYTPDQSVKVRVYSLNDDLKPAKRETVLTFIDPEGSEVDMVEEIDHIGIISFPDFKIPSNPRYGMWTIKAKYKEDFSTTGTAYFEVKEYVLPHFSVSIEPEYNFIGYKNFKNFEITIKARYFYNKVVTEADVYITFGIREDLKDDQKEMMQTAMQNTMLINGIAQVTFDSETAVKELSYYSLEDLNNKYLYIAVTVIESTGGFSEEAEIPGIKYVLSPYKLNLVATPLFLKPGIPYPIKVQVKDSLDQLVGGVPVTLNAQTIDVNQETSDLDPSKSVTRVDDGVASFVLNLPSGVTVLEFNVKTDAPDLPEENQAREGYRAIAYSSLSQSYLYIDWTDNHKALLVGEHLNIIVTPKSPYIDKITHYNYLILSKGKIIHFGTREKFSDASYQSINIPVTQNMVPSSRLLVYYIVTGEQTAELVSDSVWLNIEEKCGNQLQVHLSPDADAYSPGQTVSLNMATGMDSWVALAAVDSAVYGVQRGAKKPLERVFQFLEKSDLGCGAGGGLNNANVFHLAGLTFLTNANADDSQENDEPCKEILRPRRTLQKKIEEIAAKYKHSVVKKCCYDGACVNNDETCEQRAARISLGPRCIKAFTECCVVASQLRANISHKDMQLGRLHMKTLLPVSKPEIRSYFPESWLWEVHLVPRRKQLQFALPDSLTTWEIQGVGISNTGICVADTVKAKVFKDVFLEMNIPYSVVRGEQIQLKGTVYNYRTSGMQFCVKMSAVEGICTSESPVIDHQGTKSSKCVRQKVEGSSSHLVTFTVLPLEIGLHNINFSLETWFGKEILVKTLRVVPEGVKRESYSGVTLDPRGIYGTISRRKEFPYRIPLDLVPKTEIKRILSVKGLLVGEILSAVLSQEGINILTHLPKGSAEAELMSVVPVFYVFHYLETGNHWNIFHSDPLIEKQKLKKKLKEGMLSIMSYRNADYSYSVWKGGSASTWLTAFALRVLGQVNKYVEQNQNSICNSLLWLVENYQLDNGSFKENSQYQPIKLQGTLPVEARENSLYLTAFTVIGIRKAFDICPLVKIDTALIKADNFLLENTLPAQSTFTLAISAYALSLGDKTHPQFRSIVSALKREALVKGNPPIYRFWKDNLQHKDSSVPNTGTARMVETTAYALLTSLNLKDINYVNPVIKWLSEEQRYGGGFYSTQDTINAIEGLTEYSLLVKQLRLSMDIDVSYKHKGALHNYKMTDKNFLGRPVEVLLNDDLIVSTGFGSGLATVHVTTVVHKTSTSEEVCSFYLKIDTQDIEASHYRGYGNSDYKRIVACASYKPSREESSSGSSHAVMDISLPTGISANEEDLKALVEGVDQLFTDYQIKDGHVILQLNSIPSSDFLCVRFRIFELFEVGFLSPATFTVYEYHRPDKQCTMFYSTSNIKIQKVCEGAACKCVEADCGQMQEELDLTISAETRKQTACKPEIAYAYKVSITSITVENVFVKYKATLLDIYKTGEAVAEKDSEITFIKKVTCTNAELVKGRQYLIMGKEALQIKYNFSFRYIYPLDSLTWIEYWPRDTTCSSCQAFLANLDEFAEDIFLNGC
Sequence of complement C5 in human serum/blood (P01031 whole entry): as above

B1: ARC913 (mixed)
RNA: GGGAGAGGAGAGAACGUUCUACCUUGGUUUGGCACAGGCAUACAUACGCAGGGGUCGAUCGAUCGAUCAUCGAUG
modifications: dRmY: A,G deoxy; C,U 2'-OMe
Kd [1]: ~140 nM | IC50 [2]: ~30 nM
